Results from article PMC9517163.

Biological target: minke whale ACE2, mFc-tagged (minke whale)
Experiment: SPR

Substance: SARS-CoV-2 receptor-binding domain (RBD), prototype (from UniProt P0DTC2) (domain or fragment)
- Kd: 156 nM
